Data set [1] can be described thus: Dispersion and stability of somatotropin in phosphatidylcholine. The format is physicochemical. The settings on record: 85% phosphatidylcholine with lipoic acid and ascorbyl palmitate. The protocol: (§1) A drug delivery composition formulated with somatotropin was formulated in one trial with 85% phosphatidylcholine to which lipoic acid and ascorbyl palmitate were added.

A short description of data set [2]: Skin penetration after topical application of the somatotropin composition. To be noted: composition topically applied. The format is in vivo. The protocol:
as §1

The nature of data set [3]: RP-HPLC and HPCE stability analyses of insulin standards and stable insulin compositions, Example 2. The format is physicochemical. The settings on record: stored at room temperature.
Data set [4] in a line: RP-HPLC and HPCE stability analyses of insulin standards and insulin compositions, Example 1. The class given is physicochemical. The settings on record: stored at room temperature. The protocol: This mixture was then divided in half, half of which was stored at 4° C., and the other half stored at room temperature.

With “Somatotropin: Somatotropin (pituitary growth hormone) formulated with 85% phosphatidylcholine, lipoic acid and ascorbyl palmitate”, in data set [1], the dispersion in phosphatidylcholine result is given as “readily dispersed” and the stability in phosphatidylcholine result is listed as “remained stable”. Further, the skin penetration entry in data set [2] is “penetrate the skin well”.
Take “insulin standards: Insulin in 0.01 N HCl: 1 mg/ml Sigma insulin (Example 1), 5 mg/ml (Example 2)”: the “time at which denaturing started (RP-HPLC and HPCE)” value was at most 1 week in data set [3] and at most 7 days in data set [4].

Values taken from patent US20100311696A1, “TOPICAL SKIN TREATMENT COMPOSITION” (priority 2002, published 2010).
